First the molecules themselves.
B1: Cys-variant stresscopin-like peptide SEQ ID NO: 17 (peptide)
peptide: TKFTLSLDVPTNIMNCLFNIAKAKNLRAQAAANAHLMAQI-NH2
B2: Cys-variant stresscopin-like peptide SEQ ID NO: 11 (peptide)
peptide: TKFTLSLDVCTNIMNLLFNIAKAKNLRAQAAANAHLMAQI-NH2
B3: Cys-variant stresscopin-like peptide SEQ ID NO: 16 (peptide)
peptide: TKFTLSLDVPTNIMCLLFNIAKAKNLRAQAAANAHLMAQI-NH2
B4: Cys-variant stresscopin-like peptide SEQ ID NO: 14 (peptide)
peptide: TKFTLSLDVPTNCMNLLFNIAKAKNLRAQAAANAHLMAQI-NH2
B5: Cys-variant stresscopin-like peptide SEQ ID NO: 13 (peptide)
peptide: TKFTLSLDVPTCIMNLLFNIAKAKNLRAQAAANAHLMAQI-NH2
B6: Cys-variant stresscopin-like peptide SEQ ID NO: 12 (peptide)
peptide: TKFTLSLDVPCNIMNLLFNIAKAKNLRAQAAANAHLMAQI-NH2
B7: Pegylated Cys-variant stresscopin-like peptide with NES linker and PEG about 20 kDa SEQ ID NO: 61 (peptide)
peptide: TKFTLSCDVPTNIMNLLFNIAKAKNLRAQAAANAHLMAQI
modifications: NES-PEG (about 20 kDa) on Cys 7; C-terminal amide (-NH2)
B8: Pegylated Cys-variant stresscopin-like peptide with NES linker and PEG about 20 kDa SEQ ID NO: 68 (peptide)
peptide: B7 peptide with C7L, M14C
modifications: NES-PEG (about 20 kDa) on Cys 14; C-terminal amide (-NH2)
B9: Pegylated Cys-variant stresscopin-like peptide with NES linker and PEG about 20 kDa SEQ ID NO: 62 (peptide)
peptide: B7 peptide with C7L, D8C
modifications: NES-PEG (about 20 kDa) on Cys 8; C-terminal amide (-NH2)
B10: Pegylated Cys-variant stresscopin-like peptide with NES linker and PEG about 20 kDa SEQ ID NO: 64 (peptide)
peptide: B7 peptide with C7L, P10C
modifications: NES-PEG (about 20 kDa) on Cys 10; C-terminal amide (-NH2)
B11: Pegylated Cys-variant stresscopin-like peptide with NES linker and PEG about 20 kDa SEQ ID NO: 70 (peptide)
peptide: B7 peptide with C7L, L16C
modifications: NES-PEG (about 20 kDa) on Cys 16; C-terminal amide (-NH2)
B12: Pegylated Cys-variant stresscopin-like peptide with NES linker and PEG about 20 kDa SEQ ID NO: 66 (peptide)
peptide: B7 peptide with C7L, N12C
modifications: NES-PEG (about 20 kDa) on Cys 12; C-terminal amide (-NH2)
B13: Pegylated Cys-variant stresscopin-like peptide with NES linker and PEG about 20 kDa SEQ ID NO: 63 (peptide)
peptide: B7 peptide with C7L, V9C
modifications: NES-PEG (about 20 kDa) on Cys 9; C-terminal amide (-NH2)
B14: Pegylated Cys-variant stresscopin-like peptide with NES linker and PEG about 20 kDa SEQ ID NO: 65 (peptide)
peptide: B7 peptide with C7L, T11C
modifications: NES-PEG (about 20 kDa) on Cys 11; C-terminal amide (-NH2)
B15: Pegylated Cys-variant stresscopin-like peptide with NES linker and PEG about 20 kDa SEQ ID NO: 67 (peptide)
peptide: B7 peptide with C7L, I13C
modifications: NES-PEG (about 20 kDa) on Cys 13; C-terminal amide (-NH2)
B16: Pegylated Cys-variant stresscopin-like peptide with NES linker and PEG about 20 kDa SEQ ID NO: 69 (peptide)
peptide: B7 peptide with C7L, N15C
modifications: NES-PEG (about 20 kDa) on Cys 15; C-terminal amide (-NH2)
B17: Cys-variant stresscopin-like peptide SEQ ID NO: 10 (peptide)
peptide: TKFTLSLDCPTNIMNLLFNIAKAKNLRAQAAANAHLMAQI-NH2
B18: Cys-variant stresscopin-like peptide SEQ ID NO: 18 (peptide)
peptide: TKFTLSLDVPTNIMNLCFNIAKAKNLRAQAAANAHLMAQI-NH2
B19: Cys-variant stresscopin-like peptide SEQ ID NO: 15 (peptide)
peptide: TKFTLSLDVPTNICNLLFNIAKAKNLRAQAAANAHLMAQI-NH2
B20: Cys-variant stresscopin-like peptide SEQ ID NO: 9 (peptide)
peptide: TKFTLSLCVPTNIMNLLFNIAKAKNLRAQAAANAHLMAQI-NH2

The record followed here is patent publication US20110105397A1, “METHOD FOR TREATING HEART FAILURE WITH STRESSCOPIN-LIKE PEPTIDES” (priority 2009, published 2011).

Substitutions are numbered along the chain they refer to. Where no end group is shown, it is not given here.

This assay concerns the target T1, human corticotrophin releasing hormone receptor type 2 (CRHR2) (human, UniProt Q13324 1-411).
T1 sequence (looked up): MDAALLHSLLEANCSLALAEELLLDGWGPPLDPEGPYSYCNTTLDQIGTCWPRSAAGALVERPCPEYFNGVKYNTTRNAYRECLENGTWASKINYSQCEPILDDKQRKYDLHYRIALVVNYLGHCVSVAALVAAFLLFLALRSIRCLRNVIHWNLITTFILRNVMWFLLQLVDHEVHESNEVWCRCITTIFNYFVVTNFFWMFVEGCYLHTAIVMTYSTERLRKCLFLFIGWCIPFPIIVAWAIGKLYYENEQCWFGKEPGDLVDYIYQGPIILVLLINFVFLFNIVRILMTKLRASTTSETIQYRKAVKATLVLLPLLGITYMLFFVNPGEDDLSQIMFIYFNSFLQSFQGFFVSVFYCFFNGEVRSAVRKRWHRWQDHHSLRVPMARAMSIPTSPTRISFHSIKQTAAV
Description: cell-based or functional assay.
In the case of B1, the “Log DR” value came out at 0.02 log10 and the pA50 was 9.5 -log10(M).

Consider B2, for which the “Log DR” value was 0.82 log10 and the pA50 was 8.76 -log10(M).

With B3, the “Log DR” value stood at 0.76 log10 and the pA50 was 8.93 -log10(M).

As to B4, the “Log DR” value is greater than 2 log10 and the pA50 is ~7.34 -log10(M).

For B5, the “Log DR” value was -0.01 log10 and the pA50 was 9.59 -log10(M).

On to B6, for which the “Log DR” value came out at 1.72 log10 and the pA50 was 7.86 -log10(M).

As for B7, the “Log DR” value was greater than 3.32 log10 and the pA50 is ~6.22 -log10(M).

Turning to B8, the “Log DR” value was roughly 2.61 log10 and the pA50 is ~6.96 -log10(M).

On to B9, for which the “Log DR” value is greater than 3.48 log10 and the pA50 is ~6.06 -log10(M).

For the molecule B10, the “Log DR” value is roughly 2.59 log10 and the pA50 was ~6.98 -log10(M).

With B11, the “Log DR” value was roughly 2.07 log10 and the pA50 is ~7.34 -log10(M).

B12: the “Log DR” value was 1.26 log10 and the pA50 was 8.31 -log10(M).

For the molecule B13, the “Log DR” value is roughly 2.12 log10 and the pA50 is ~7.45 -log10(M).

As for B14, the “Log DR” value is roughly 2.75 log10 and the pA50 was ~6.82 -log10(M).

With B15, the “Log DR” value is greater than 3 log10 and the pA50 was ~6.35 -log10(M).

For the molecule B16, the “Log DR” value worked out at 2.09 log10 and the pA50 was 7.45 -log10(M).

In the case of B17, the “Log DR” value was 1.3 log10 and the pA50 is 8.28 -log10(M).

In the case of B18, the “Log DR” value turned out to be 1.11 log10 and the pA50 was 8.41 -log10(M).

Take B19: the “Log DR” value amounted to 0.9 log10 and the pA50 is 8.68 -log10(M).

With B20, the “Log DR” value is 1.89 log10 and the pA50 was 7.8 -log10(M).
